Biological target: the molecule itself
Experiment: cross-linking; cysteine (disulfide) cross-linking in COS-7 lysates, 1 h room temperature, SDS-PAGE under reducing and non-reducing conditions, anti-GFP Western blot

B1: GFP-labelled CLIP-115 (natural protein)
chain: not shown
notes: CLIP-115 (CAP-Gly domain-containing linker protein 2); Species surmised as rat; source: COS-7, transfected, in lysate; not shown: GFP (monomeric), N-terminal, kept
- stoichiometry N: 2

Reference: paper PMC4971492, “Structural basis for misregulation of kinesin KIF21A autoinhibition by CFEOM1 disease mutations” (Scientific Reports, 2016)
